# According to article PMC6349918, “A five-residue motif for the design of domain swapping in proteins” (Nature Communications, 2019):
# Target: the molecule itself
# Assay: SEC; MK-Ctd and its loop variants; Superdex 75 10/300 GL; 20 mM Tris-HCl, 500 mM GdnHCl, pH 8; monomer to dimer
row,Protein,stoichiometry N
1,L1MK-Ctd (MK-Ctd with QVVAG engineered into loop1) (domain or fragment) MVPSRFEDVRVVQVVAGWRVSVKIAETEEGEVVTVKAEFDECREIGEETGIPPREVKAMVEAAARVGGWVDLKEREIKVQEG,2
2,L1MK-Ctd* (L1MK-Ctd with QVVAG mutated to QVNAG) (domain or fragment) MVPSRFEDVRVVQVNAGWRVSVKIAETEEGEVVTVKAEFDECREIGEETGIPPREVKAMVEAAARVGGWVDLKEREIKVQEG,2
